Experimental data taken from PMC5810440, “The Origins of Specificity in the Microcin-Processing Protease TldD/E” (Structure(London, England:1993), 2017).
Changes are numbered by the printed parent chain. One block for each molecule: values may come before it.

What was measured:
[1] = target: T1, TldD/E (purified TldD and TldE combined) (Escherichia coli, UniProt P0AGG8); experiment: inhibition of angiotensin II hydrolysis; assay type: biochemical; details: substrate angiotensin II
T1 construct: with Metalloprotease PmbA
T1 sequence (P0AGG8 1-481): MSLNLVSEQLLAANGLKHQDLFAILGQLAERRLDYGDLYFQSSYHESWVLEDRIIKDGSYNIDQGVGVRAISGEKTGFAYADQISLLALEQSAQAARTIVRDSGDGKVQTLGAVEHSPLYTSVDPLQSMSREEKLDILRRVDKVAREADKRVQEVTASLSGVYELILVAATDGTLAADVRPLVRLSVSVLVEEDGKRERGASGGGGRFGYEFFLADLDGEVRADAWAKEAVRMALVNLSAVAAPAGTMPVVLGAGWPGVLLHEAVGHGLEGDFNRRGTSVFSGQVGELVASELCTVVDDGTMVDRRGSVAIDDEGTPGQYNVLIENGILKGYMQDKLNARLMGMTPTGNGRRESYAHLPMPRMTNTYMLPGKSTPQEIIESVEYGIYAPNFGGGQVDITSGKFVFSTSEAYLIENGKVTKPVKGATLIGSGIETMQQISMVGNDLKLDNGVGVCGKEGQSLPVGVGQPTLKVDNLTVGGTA
T1 sequence (P0AFK0 1-450 partner): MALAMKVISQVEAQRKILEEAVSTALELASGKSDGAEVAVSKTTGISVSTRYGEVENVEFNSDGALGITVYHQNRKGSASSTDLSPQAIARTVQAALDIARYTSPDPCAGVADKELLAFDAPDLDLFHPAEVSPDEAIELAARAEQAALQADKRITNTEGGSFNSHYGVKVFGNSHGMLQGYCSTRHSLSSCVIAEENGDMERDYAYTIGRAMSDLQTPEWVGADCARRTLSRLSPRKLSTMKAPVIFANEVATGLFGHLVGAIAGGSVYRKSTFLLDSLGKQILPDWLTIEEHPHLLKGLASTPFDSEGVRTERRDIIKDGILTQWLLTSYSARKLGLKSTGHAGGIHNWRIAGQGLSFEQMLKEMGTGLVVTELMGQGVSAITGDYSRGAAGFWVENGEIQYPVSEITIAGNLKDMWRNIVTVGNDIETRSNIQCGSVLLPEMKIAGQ

[2] = target: N-terminally 6xHis-tagged E. coli TldD (pET28b, purified separately) (E. coli) (UniProt P0AGG8); experiment: AUC; sedimentation equilibrium, 0.2 mg/ml protein in 50 mM Tris-HCl pH 7.5, 100 mM NaCl, 10000 rpm, 20 C, single species model
[3] = target: T2, His-tagged E. coli TldD co-expressed with untagged TldE (pColA-Duet, MCS I) (E. coli, UniProt P0AGG8 1-481, Gly to Asp at position 401); experiment: pull-down; Ni affinity chromatography of extracts of E. coli co-overproducing His-tagged TldD and untagged TldE; wash ~20 CV with 1 M NaCl, 50 mM imidazole, 0.1% Triton X-100; elution with 250 mM imidazole; details: partners not purified
T2 construct: TldD of E. coli MG1655, cloned into MCS I of pColA-Duet (BamHI/HindIII); residues 2-481 seen in the crystals; Zn in the active site (grown with 50 uM ZnCl2 for crystals); also called TldD-His; His-tagged TldD; source: E. coli BL21 (DE3) Gold, co-overproduced with TldE
T2 sequence (looked up): T1 sequence (P0AGG8 1-481) with G401D

[4] = target: T3, E. coli TldD His262Ala mutant (subunit of the TldD^H262A/E complex) (E. coli, UniProt P0AGG8 1-481, H262A | Gly to Asp at position 401); experiment: crystal structure; X-ray structures of the co-purified TldD/E heterodimer (wild type and TldD mutants), two heterodimers in the asymmetric unit; condition 1 (phosphate, PEG 3350) or condition 2 (PEG 1500, MMT pH 8.0), 20 C; details: both partners purified
T3 construct: TldD of E. coli MG1655 with H262A; Gly401 to Asp was introduced into all the models; source: E. coli, mutant protein complex with TldE
T3 sequence (looked up): T1 sequence (P0AGG8 1-481) with H262A, G401D

[5] = target: T4, E. coli TldD Glu263Ala mutant (subunit of the TldD^E263A/E complex) (E. coli, UniProt P0AGG8 1-481, E263A | Gly to Asp at position 401); experiment: as above; details: both partners purified
T4 construct: TldD of E. coli MG1655 with E263A; Gly401 to Asp was introduced into all the models; The methods say only that the mutants were made by overlap extension PCR and 'cloned and produced as described above'; also called Glu263Ala TldD mutant; source: E. coli, mutant protein complex with TldE
T4 sequence (looked up): T1 sequence (P0AGG8 1-481) with E263A, G401D

[6] = target: the molecule itself; experiment: AUC; sedimentation equilibrium, 0.2 mg/ml protein in 50 mM Tris-HCl pH 7.5, 100 mM NaCl, 10000 rpm, 20 C, single species model

stoichiometry N [2]: 2
Molecule: N-terminally 6xHis-tagged E. coli TldD (pET28b, purified separately) (from UniProt P0AGG8 1-481) (natural protein)

binding result [3]: binds
binding result [4]: binds
binding result [5]: binds
B1: untagged E. coli TldE co-expressed with His-tagged TldD (pColA-Duet, MCS II) (natural protein, UniProt P0AFK0 1-450, looked up)
chain: T1 sequence (P0AFK0 1-450 partner)
notes: TldE (PmbA) of E. coli MG1655, cloned into the second MCS of pColA-Duet (NdeI/XhoI), untagged; residues 6-450 seen in the crystals; also called PmbA; TldE subunit; source: E. coli BL21 (DE3) Gold, co-overproduced with His-tagged TldD

Continued, molecule first:

Molecule: CCCCC[C@H](CC(=O)NO)C(=O)N[C@H](C(=O)N1CCC[C@H]1CO)C(C)C [Actinonin]
inhibition of angiotensin II hydrolysis [1]: actinonin (deformylase inhibitor) efficiently prevented angiotensin II hydrolysis by TldD/E

B2: N-terminally 6xHis-tagged E. coli TldE (pET28b, purified separately) (natural protein, UniProt P0AFK0 1-450, looked up)
chain: T1 sequence (P0AFK0 1-450 partner)
notes: 50.5 kDa with the tag; also called His-TldE; PmbA; source: E. coli BL21 (DE3) Gold, purified (Ni-NTA)
stoichiometry N [6]: 2
